Patent US20250327097A1, “ORGANISMS PRODUCING LESS CROTONIC ACID” (Global Bioenergies, priority 2021, published 2025)
Where a chain is given by its changes, count along the chain named. In names and notes the source's numbering stands.

B1: I283T-N285P-N287T-Q290E-S322T-N388M-K394R-C430A-L432F-L434W-S436N-i443aT-dG462 (protein)
chain: MFLKSLREQINLLKRQGDLRIINRPVDSYLEAAAIIRRSTETKAPVPLMTNIKGYPGCSIVGGLAALSSNPEYPLSRVAMSLGLSTTASAQSIVQYLIDGLKKTPYLPVEIDSNSAPCKQNILRGEDASLAHFPIPQVHQHDGNRYVNTWGVFIVESPDGQWCNWSIQRVQYLNDRQMIALVFPSQHISDIWEEWVKIGKPMPYALVQGCEPIVPYIAGLPLLERNVNEAEYIGALYGKGIEVVKCETHDLRVPASSEVVIEGYFAITREGVEGPFGEFAGYTPPETSLEPILSITAISWQDDPIWPVVAEGKPVDEYHTCTGIGDAAAIQNVLLTANLPVSFVWVPLYSACHLMIVSINRHWRQTHPDLTSEQLTKKVGDVIHQTRMSIKLPRIVVLDDDVDPADTESLLWALATRIHPERKRYFYESAIFPWLNCYSEEERHNRKGKRVIIDALLPENHGAISSFDYAYPDDIKQRVLMHWETDFSHD
B2: V382L-N388M-K394R-C430N-L432F-L434W-S436N (protein)
chain: B1 chain with T283I, P285N, T287N, E290Q, T322S, V382L, A430N
B3: I283T-N285P-N287T-Q290E-S322T-N388M-K394R-C430A-i431aL-L432F-L434W-S436N-dG462 (protein)
chain: B1 chain
B4: I283T-N285P-N287T-Q290E-S322T-N388M-K394R-E421F-C430A-i430aG-L432F-L434W-S436N-dG462 (protein)
chain: B1 chain with E421F
B5: I283T-N285P-N287T-Q290E-S322T-N388M-K394R-C430A-L432F-L434W-S436N-i444aN-dG462 (protein)
chain: B1 chain
B6: I283T-N285P-N287T-Q290E-S322T-N388M-K394R-E421F-C430A-i430aN-L432F-L434W-S436N-dG462 (protein)
chain: B1 chain with E421F
B7: I283T-N285P-N287T-Q290E-S322T-N388M-K394R-C430A-L432F-L434W-S436N-i444aH-dG462 (protein)
chain: B1 chain
B8: I283T-N285P-N287T-Q290E-S322T-N388M-K394R-C430A-L432F-L434W-S436N-i444aS-dG462 (protein)
chain: B1 chain
B9: L223Y-I283T-N285P-N287T-Q290E-S322T-N388M-K394R-E421F-C430A-L432F-L434W-S436N-dG462 (protein)
chain: B1 chain with L223Y, E421F
B10: I283T-N285P-N287T-Q290E-S322T-N388M-K394R-E421F-C430A-L432F-L434W-S436N-i448aS-dG462 (protein)
chain: B1 chain with E421F
B11: I283T-N285P-N287T-Q290E-S322T-N388M-K394R-C430A-i431aG-L432F-L434W-S436N-dG462 (protein)
chain: B1 chain
B12: I283T-N285P-N287T-Q290E-S322T-N388M-K394R-C430A-L432F-L434W-S436N-i447aK-dG462 (protein)
chain: B1 chain
B13: V382A-N388M-K394R-C430N-L432F-L434W-S436N (protein)
chain: B1 chain with T283I, P285N, T287N, E290Q, T322S, V382A, A430N
B14: I283T-N285P-N287T-Q290E-S322T-N388M-K394R-C430A-L432F-L434W-S436N-i447aP-dG462 (protein)
chain: B1 chain
B15: I283T-N285P-N287T-Q290E-S322T-N388M-K394R-C430A-L432F-L434W-S436N-i449aS-dG462 (protein)
chain: B1 chain
B16: I283T-N285P-N287T-Q290E-S322T-N388M-K394R-C430A-L432F-L434W-S436N-i444aR-dG462 (protein)
chain: B1 chain
B17: I283T-N285P-N287T-Q290E-S322T-N388M-K394R-C430A-L432F-L434W-S436N-i444aT-dG462 (protein)
chain: B1 chain
B18: I283T-N285P-N287T-Q290E-S322T-N388M-K394R-C430A-i431aN-L432F-L434W-S436N-dG462 (protein)
chain: B1 chain
B19: I283T-N285P-N287T-Q290E-S322T-N388M-K394R-C430A-L432F-L434W-S436N-i444aK-dG462 (protein)
chain: B1 chain
B20: I283T-N285P-N287T-Q290E-S322T-N388M-K394R-C430A-L432F-L434W-S436N-i448aS-dG462 (protein)
chain: B1 chain
B21: I283T-N285P-N287T-Q290E-S322T-N388M-K394R-C430A-L432F-L434W-S436N-i444aP-dG462 (protein)
chain: B1 chain
B22: I283T-N285P-N287T-Q290E-S322T-N388M-K394R-C430A-L432F-L434W-S436N-i444aV-dG462 (protein)
chain: B1 chain
B23: I283T-N285P-N287T-Q290E-S322T-N388M-K394R-C430A-L432F-L434W-S436N-i444aE-dG462 (protein)
chain: B1 chain
B24: L223Y-I283T-N285P-N287T-Q290E-S322T-N388M-K394R-E421F-K423G-C430A-L432F-L434W-S436N-dG462 (protein)
chain: B1 chain with L223Y, E421F, K423G
B25: I283T-N285P-N287T-Q290E-S322T-N388M-K394R-C430A-L432F-L434W-S436N-i447aL-dG462 (protein)
chain: B1 chain
B26: I283T-N285P-N287T-Q290E-S322T-N388M-K394R-E421F-C430A-i430aL-L432F-L434W-S436N-dG462 (protein)
chain: B1 chain with E421F
B27: L223Y-I283T-N285P-N287T-Q290E-S322T-N388M-K394R-K423G-C430A-i430aG-L432F-L434W-S436N-dG462 (protein)
chain: B1 chain with L223Y, K423G
B28: I283T-N285P-N287T-Q290E-S322T-N388M-K394R-C430A-L432F-L434W-S436N-i444aL-dG462 (protein)
chain: B1 chain
B29: I283T-N285P-N287T-Q290E-S322T-N388M-K394R-C430A-L432F-L434W-S436N-i444aG-dG462 (protein)
chain: B1 chain
B30: I283T-N285P-N287T-Q290E-S322T-N388M-K394R-C430A-L432F-L434W-S436N-i445aQ-dG462 (protein)
chain: B1 chain
B31: I283T-N285P-N287T-Q290E-S322T-N388M-K394R-C430A-L432F-L434W-S436N-i447aY-dG462 (protein)
chain: B1 chain

Each molecule was assayed on 3-methylcrotonic acid.
Type: biochemical, Yersinia frederiksenii
Design: key: “+” representing a low increase in activity; “++++” representing a high increase in activity
With B1 the “Activity relative to WT” value was “++++”. B2 was tested, and the “Activity relative to WT” value was “+”. In the case of B3, the “Activity relative to WT” value is reported as “++++”. B4 was tested, and the “Activity relative to WT” value was “++++”. For B5, the “Activity relative to WT” value was “++++”. For B6, the “Activity relative to WT” value was “++++”. In the case of B7, the “Activity relative to WT” value is reported as “++++”. In the case of B8, the “Activity relative to WT” value is reported as “++++”. B9 was tested, and the “Activity relative to WT” value was “++++”. In the case of B10, the “Activity relative to WT” value is reported as “++++”. For B11, the “Activity relative to WT” value was “++++”. With B12 the “Activity relative to WT” value was “++++”. B13 was tested, and the “Activity relative to WT” value was “+”. For B14, the “Activity relative to WT” value was “++++”. For B15, the “Activity relative to WT” value was “++++”. B16 was tested, and the “Activity relative to WT” value was “++++”. For B17, the “Activity relative to WT” value was “++++”. In the case of B18, the “Activity relative to WT” value is reported as “++++”. In the case of B19, the “Activity relative to WT” value is reported as “++++”. In the case of B20, the “Activity relative to WT” value is reported as “++++”. For B21, the “Activity relative to WT” value was “++++”. B22 was tested, and the “Activity relative to WT” value was “++++”. B23 was tested, and the “Activity relative to WT” value was “++++”. For B24, the “Activity relative to WT” value was “++++”. In the case of B25, the “Activity relative to WT” value is reported as “++++”. B26 was tested, and the “Activity relative to WT” value was “++++”. B27 was tested, and the “Activity relative to WT” value was “++++”. For B28, the “Activity relative to WT” value was “++++”. B29 was tested, and the “Activity relative to WT” value was “++++”. In the case of B30, the “Activity relative to WT” value is reported as “++++”. B31 was tested, and the “Activity relative to WT” value was “++++”.
